Results on nine molecules are retold here after patent US20250154202A1 (published 2025).

Bridge positions count the residues as written; N and C are the ends. Square brackets hold non-standard residues; d marks the D form. Ends that are not written are not given here.

The term EC50 denotes the concentration giving half of the maximal effect. Usually Kd stands for the concentration at which binding is half-saturated. A low value points to higher affinity. The koff is a measure of how fast the partners let go of each other. Low readings indicate slow dissociation, high ones fast dissociation. As usually defined, the kon is a measure of how fast the partners come together. The low end stands for slow association, the high end for fast association.

The target in experiment [1] is anti-ALFA VHH. Put plainly: dose-response curve fit (log(agonist) vs. response, variable slope), FIG. 2; assay format not described; unit from paragraph 98.
Chain of anti-ALFA VHH (VHH, as listed by the source): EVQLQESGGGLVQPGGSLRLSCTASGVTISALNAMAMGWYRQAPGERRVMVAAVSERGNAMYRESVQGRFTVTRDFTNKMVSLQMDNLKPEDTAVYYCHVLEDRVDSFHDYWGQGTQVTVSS
In experiment [2] the target is T1, biotinylated NbALFA (NanoTag) (biotinylated (site not stated)).
T1 construct: Bought from NanoTag and captured on the SPR chip through biotin; also called NbALFA-nanobody; Nanobody
T1 sequence (VHH, as listed by the source): as above
In words: SPR, Biacore T200, biotinylated NbALFA captured on Biotin CAPture chip, peptide as analyte, multi-cycle kinetics, 1:1 model, 25 C. As to the method:
Affinity measurements were performed using a Biacore T200 (GE Healthcare, Biacore T200 control Software 3.2). For affinity measurement, the Biotin CAPture kit, series S (Cytiva Europe, Cat. no. 28920234) was utilized. A freshly docked Biotin CAPture chip was rehydrated overnight in the instrument (standby mode). The following day, the chip surface was conditioned three times with regeneration solution (6 M guanidine-HCl, 0.25 M NaOH) for 60 s at 10 μL/min on flow cell (FC) 1 and FC2. Subsequently, the Biotin CAPture reagent (Cytiva Europe, Cat. no. 29423383) was applied for 300 s at 2 μL/min on FC1 and FC2, followed by capturing of 25 nM biotinylated NbALFA (NanoTag). The immobilization of the Nanobody was done for 180 s at 10 μL/min on FC2 followed by quenching of unbound streptavidin by 0.1 mM biocytin for 60 s and 30 μL/min on both flow cells. […] injections of 10 nM, 5 nM, 2.5 nM, 1.25 nM, 0.625 nM and 0 nM (blank control) of cyclic ALFA variants were performed over both flow cells for 120 s with a flow rate of 40 μL/min, followed by dissociation for 1500 s. After each cycle, the surface was regenerated for 120 s with 10 μL/min using regeneration solution. All measurements were performed at 25° C. using HBS-EP+ buffer (Cytiva Europe, Cat. no BR100669). The control responses from FC1 were subtracted by the sample measurement in FC2 (FC2−FC1) followed by subtraction of the 0 nM blank injection. Resulting binding curves of this multi cycle kinetic experiment were fitted using the Biacore T200 Evaluation Software 3.2 and a 1:1 binding model.

For experiment [3], the target named is anti-ALFA VHH. In words: dose-response curve fit (log(agonist) vs. response, variable slope), FIG. 2; assay format not described.

B1: Ac-Ser-Arg-Leu-Glu-Glu-Glu-Leu-Arg-(cyclo9)Lys-Arg-Leu-Thr-(cyclo13)Glu-NH2 (peptide)
peptide: Ac-SRLEEELRKRLTE-NH2
modifications: lactam 9-13
SMILES: CC(=O)N[C@@H](CO)C(=O)N[C@@H](CCCNC(=N)N)C(=O)N[C@@H](CC(C)C)C(=O)N[C@@H](CCC(=O)O)C(=O)N[C@@H](CCC(=O)O)C(=O)N[C@@H](CCC(=O)O)C(=O)N[C@@H](CC(C)C)C(=O)N[C@@H](CCCNC(=N)N)C(=O)N[C@H]1CCCCNC(=O)CC[C@@H](C(N)=O)NC(=O)[C@H]([C@@H](C)O)NC(=O)[C@H](CC(C)C)NC(=O)[C@H](CCCNC(=N)N)NC1=O
notes: Cyclic ALFA tag; also called SD15193
Take B1: in the experiment with anti-ALFA VHH [1], the concentration for a half-maximal effect (EC50) was 6.05 nM. In addition, in experiment [2], the Kd came to 0.0556 nM, the koff turned out to be 0.00109 s⁻¹ and the kon came to 1.95e+07 M⁻¹ s⁻¹. In the experiment with anti-ALFA VHH [3], this molecule yielded a Bottom of 0.145, a LogEC50 of 0.782, a Span of 1.29 and a Top of 1.44.

B2: Ac-Ser-Arg-Leu-Glu-Glu-Glu-Leu-Arg-Arg-Arg-Leu-Thr-Glu-NH2 (peptide)
peptide: Ac-SRLEEELRRRLTE-NH2
notes: Linear ALFA tag; also called SD15197
B2 showed an EC50 with anti-ALFA VHH [1] of 2.6 nM. In experiment [2], this molecule registered a dissociation constant (Kd) of 0.0117 nM, a koff of 0.000593 s⁻¹ and a kon of 5.05e+07 M⁻¹ s⁻¹. Besides, in the experiment with anti-ALFA VHH [3], the Bottom was determined as 0.097, the LogEC50 came to 0.414, the Span worked out at 1.29 and the Top stood at 1.39.

B3: Ac-Ser-Arg-Leu-Glu-(cyclo5)Glu-Glu-Leu-(cyclo8)Lys-Arg-Arg-Leu-Thr-Glu-NH2 (peptide)
peptide: Ac-SRLEEELKRRLTE-NH2
modifications: lactam 5-8
SMILES: CC(=O)N[C@@H](CO)C(=O)N[C@@H](CCCNC(=N)N)C(=O)N[C@@H](CC(C)C)C(=O)N[C@@H](CCC(=O)O)C(=O)N[C@H]1CCC(=O)NCCCC[C@@H](C(=O)N[C@@H](CCCNC(=N)N)C(=O)N[C@@H](CCCNC(=N)N)C(=O)N[C@@H](CC(C)C)C(=O)N[C@H](C(=O)N[C@@H](CCC(=O)O)C(N)=O)[C@@H](C)O)NC(=O)[C@H](CC(C)C)NC(=O)[C@H](CCC(=O)O)NC1=O
notes: Cyclic ALFA tag; also called SD15192
For the molecule B3, a half-maximal effect in the experiment with anti-ALFA VHH [1] (EC50) was put at 5.98 nM. In experiment [2], this molecule had a Kd of 0.0551 nM, an off-rate (koff) of 0.000577 s⁻¹ and a kon of 1.05e+07 M⁻¹ s⁻¹. Also, in the experiment with anti-ALFA VHH [3], the Bottom was 0.152, the LogEC50 amounted to 0.776, the Span was determined as 1.2 and the Top worked out at 1.35.

B4: Ac-Ser-Arg-Leu-Glu-(cyclo5)Asp-Glu-Leu-Arg-(cyclo9)Lys-Arg-Leu-Thr-Glu-NH2 (peptide)
peptide: Ac-SRLEDELRKRLTE-NH2
modifications: lactam 5-9
SMILES: CC(=O)N[C@@H](CO)C(=O)N[C@@H](CCCNC(=N)N)C(=O)N[C@@H](CC(C)C)C(=O)N[C@@H](CCC(=O)O)C(=O)N[C@H]1CC(=O)NCCCC[C@@H](C(=O)N[C@@H](CCCNC(=N)N)C(=O)N[C@@H](CC(C)C)C(=O)N[C@H](C(=O)N[C@@H](CCC(=O)O)C(N)=O)[C@@H](C)O)NC(=O)[C@H](CCCNC(=N)N)NC(=O)[C@H](CC(C)C)NC(=O)[C@H](CCC(=O)O)NC1=O
notes: Cyclic ALFA tag; also called SD15196
As for B4, the half-maximal effective concentration (EC50) with anti-ALFA VHH [1] was determined as 377 nM. Further, in experiment [2], the dissociation constant (Kd) amounted to 0.436 nM, the koff stood at 0.0079 s⁻¹ and the kon was determined as 1.81e+07 M⁻¹ s⁻¹. In the experiment with anti-ALFA VHH [3], this molecule registered a Bottom of 0.0167, a LogEC50 of 2.58, a Span of 1.41 and a Top of 1.43.

B5: Ac-Pro-Ser-Arg-Leu-(cyclo5)Glu-Glu-Glu-Leu-(cyclo9)Lys-Arg-Arg-Leu-Thr-Glu-NH2 (peptide)
peptide: Ac-PSRLEEELKRRLTE-NH2
modifications: lactam 5-9
SMILES: CC(=O)N1CCC[C@H]1C(=O)N[C@@H](CO)C(=O)N[C@@H](CCCNC(=N)N)C(=O)N[C@@H](CC(C)C)C(=O)N[C@H]1CCC(=O)NCCCC[C@@H](C(=O)N[C@@H](CCCNC(=N)N)C(=O)N[C@@H](CCCNC(=N)N)C(=O)N[C@@H](CC(C)C)C(=O)N[C@H](C(=O)N[C@@H](CCC(=O)O)C(N)=O)[C@@H](C)O)NC(=O)[C@H](CC(C)C)NC(=O)[C@H](CCC(=O)O)NC(=O)[C@H](CCC(=O)O)NC1=O
notes: Cyclic ALFA tag; also called SD15806
Take B5: in experiment [2], the dissociation constant (Kd) was 1.43 nM, the off-rate constant (koff) was 4.94 s⁻¹ and the on-rate (kon) is 3.44e+09 M⁻¹ s⁻¹.

B6: Ac-Pro-Ser-Arg-Leu-Glu-(cyclo6)Glu-Glu-Leu-Arg-(cyclo10)dLys-Arg-Leu-Thr-Glu-NH2 (peptide)
peptide: Ac-PSRLEEELR[dK]RLTE-NH2
modifications: lactam 6-10
SMILES: CC(=O)N1CCC[C@H]1C(=O)N[C@@H](CO)C(=O)N[C@@H](CCCNC(=N)N)C(=O)N[C@@H](CC(C)C)C(=O)N[C@@H](CCC(=O)O)C(=O)N[C@H]1CCC(=O)NCCCC[C@H](C(=O)N[C@@H](CCCNC(=N)N)C(=O)N[C@@H](CC(C)C)C(=O)N[C@H](C(=O)N[C@@H](CCC(=O)O)C(N)=O)[C@@H](C)O)NC(=O)[C@H](CCCNC(=N)N)NC(=O)[C@H](CC(C)C)NC(=O)[C@H](CCC(=O)O)NC1=O
notes: Cyclic ALFA tag; also called SD15808
As for B6, in experiment [2], the Kd stood at 0.038 nM, the koff amounted to 0.000513 s⁻¹ and the kon is 1.35e+07 M⁻¹ s⁻¹.

B7: Ac-Pro-Ser-Arg-Leu-Glu-(cyclo6)Lys-Glu-Leu-Arg-(cyclo10)Glu-Arg-Leu-Thr-Glu-NH2 (peptide)
peptide: Ac-PSRLEKELRERLTE-NH2
modifications: lactam 6-10
SMILES: CC(=O)N1CCC[C@H]1C(=O)N[C@@H](CO)C(=O)N[C@@H](CCCNC(=N)N)C(=O)N[C@@H](CC(C)C)C(=O)N[C@@H](CCC(=O)O)C(=O)N[C@H]1CCCCNC(=O)CC[C@@H](C(=O)N[C@@H](CCCNC(=N)N)C(=O)N[C@@H](CC(C)C)C(=O)N[C@H](C(=O)N[C@@H](CCC(=O)O)C(N)=O)[C@@H](C)O)NC(=O)[C@H](CCCNC(=N)N)NC(=O)[C@H](CC(C)C)NC(=O)[C@H](CCC(=O)O)NC1=O
notes: Cyclic ALFA tag; also called SD15805
In the case of B7, in experiment [2], the dissociation constant Kd was 0.103 nM, the koff is 0.000964 s⁻¹ and the on-rate (kon) amounted to 9.33e+06 M⁻¹ s⁻¹.

B8: Ac-Pro-Ser-Arg-Leu-Glu-(cyclo6)Glu-Glu-Leu-Arg-(cyclo10)Lys-Arg-Leu-Thr-Glu-NH2 (peptide)
peptide: Ac-PSRLEEELRKRLTE-NH2
modifications: lactam 6-10
SMILES: CC(=O)N1CCC[C@H]1C(=O)N[C@@H](CO)C(=O)N[C@@H](CCCNC(=N)N)C(=O)N[C@@H](CC(C)C)C(=O)N[C@@H](CCC(=O)O)C(=O)N[C@H]1CCC(=O)NCCCC[C@@H](C(=O)N[C@@H](CCCNC(=N)N)C(=O)N[C@@H](CC(C)C)C(=O)N[C@H](C(=O)N[C@@H](CCC(=O)O)C(N)=O)[C@@H](C)O)NC(=O)[C@H](CCCNC(=N)N)NC(=O)[C@H](CC(C)C)NC(=O)[C@H](CCC(=O)O)NC1=O
notes: Cyclic ALFA tag; also called SD15341
In experiment [2], B8 displayed a dissociation constant Kd of 0.0194 nM, a koff of 0.000361 s⁻¹ and an on-rate constant (kon) of 1.86e+07 M⁻¹ s⁻¹.

B9: Ac-Ser-Arg-Leu-Glu-(cyclo5)Glu-Glu-Leu-Arg-(cyclo9)Lys-Arg-Leu-Thr-Glu-NH2 (peptide)
peptide: SRLEEELRKRLTE
modifications: lactam 5-9; not fully specified (N-terminus, C-terminus)
notes: also called SD15194
In the case of B9, in the experiment with anti-ALFA VHH [1], the half-maximal effective concentration (EC50) was determined as 5.97 nM. In experiment [2], the Kd was 0.0376 nM, the koff was 0.00067 s⁻¹ and the association rate constant (kon) worked out at 1.78e+07 M⁻¹ s⁻¹. For the same molecule, in the experiment with anti-ALFA VHH [3], the Bottom amounted to 0.159, the LogEC50 turned out to be 0.776, the Span came to 1.27 and the Top is 1.43.
